From patent US10781456B2, “Carbon-neutral and carbon-positive photorespiration bypass routes supporting higher photosynthetic rate and yield” (Max-Planck-Gesellschaft zur Förderung der Wissenschaften …, priority 2015, dated 2020)
Where two headings read alike, the source gives them in different places.

Tests used:
[1] = molecular target: D-fructose 6-phosphate aldolase encoded by E. coli gene fsaA (UniProt P78055); conditions: cited from earlier work
[2] = molecular target: D-fructose 6-phosphate aldolase encoded by E. coli gene fsaB (UniProt P32669); conditions: cited from earlier work
[3] = substrate: CC(C)(COP(=O)(O)OP(=O)(O)OC[C@H]1O[C@@H](n2cnc3c(N)ncnc32)[C@H](O)[C@@H]1OP(=O)(O)O)[C@@H](O)C(=O)NCCC(=O)NCCSC(=O)C(O)C(=O)O; test: MCRCa activity for conversion of tartronyl-CoA into glycerate (reactions 4# and 5), NADPH oxidation; assay type: biochemical, Chloroflexus aurantiacus; conditions: pH 7.5, 0.4 mM NADPH
Experimental: For the heterologous expression of the MCRCa protein (amino acid sequence is shown in SEQ ID NO: 8; corresponding nucleic acid sequence encoding the protein is depicted in SEQ ID NO: 7) the previously described pTRC-MCRCa plasmid (Kröger et al., 2011, Analytical biochemistry, 411(1), 100-105) was employed.
Cells were harvested at 10 000×g for 10 min and cell pellets were stored at −80° C. until purification of enzymes. Cell pellets of MCRCa and MCRE overexpressing cells were resuspended in two-fold volume of buffer AStrep (50 mM Tris/HCl, 150 mM NaCl, pH 7.8) containing 0.1 mg mL^−1 DNAse I. The cell suspension was passed through a French pressure cell twice at a pressure of 137 MPa and centrifuged at 100 000×g and 4° C. for 1 h. The supernatant was filtered through a 0.45 μm syringe filter and loaded at a flow rate of 1 mL min^−1 onto a 1 mL StrepTrap™ HP column (GE healthcare) which had previously been equilibrated with 5 column volumes of buffer AStrep. The column was washed with 20 column volumes of buffer AStrep and the protein was eluted with buffer AStrep containing 3 mM desthiobiotin. The enzyme was stored in buffer AStrep containing 20% glycerol.
(§1) The kinetics of the MCRCa enzyme for enzymatically converting the substrate tartonyl-CoA into glycerate (via reactions 4# and 5 both catalyzed by MCRCa) were determined spectrophotometrically at 365 nm following the oxidation of NADPH. Per molecule tartronyl-CoA, two molecules of NADPH are oxidized by MCRCa (a first in reaction 4# and a second in reaction 5) The measurements were carried out at 37° C. in a total reaction volume of 200 μL containing 100 mM MOPS buffer (with 5 mM MgCl2, pH 7.5) with an initial NADPH concentration of 0.4 mM NADPH and 23 μg MCRCa.

[4] = substrate: CC(C)(COP(=O)(O)OP(=O)(O)OC[C@H]1O[C@@H](n2cnc3c(N)ncnc32)[C@H](O)[C@@H]1OP(=O)(O)O)[C@@H](O)C(=O)NCCC(=O)NCCSC(=O)CO; test: PCCMe_D407I_Y143H activity for conversion of glycolyl-CoA into tartronyl-CoA (reaction 3#), coupled ATP hydrolysis (PK/LDH) assay; assay type: biochemical, Methylobacterium extorquens; conditions: other: 37° C., pH 7.7, ATP hydrolysis assay, 0.125-3 mM glycolyl-CoA, n=2
[5] = test system: tartronyl-CoA; test: malonyl-CoA reductase spectrophotometric assay, NADPH oxidation at 365 nm, tartronyl-CoA into glycerate (reactions 4# and 5); assay type: biochemical; conditions: 0.25 mM tartronyl-CoA
Experimental: as §1
(§2) An alternative enzyme for catalyzing the conversion of tartonyl-CoA into glycerate (via reactions 4# and 5) is the MCR from Erythrobacter sp. NAP1 (MCRE). It was tested for its activity with malonyl-CoA and for tartronyl-CoA with the assay described above for MCRCa.

[6] = test system: malonyl-CoA; test: malonyl-CoA reductase activity with physiological substrate malonyl-CoA; assay type: biochemical
Experimental: as §1
(0.3 mM substrate, Kröger et al. 2011, loc. cit.). With tartronyl-CoA (0.25 mM), the specific activity at 37° C. was 0.6 U mg^−1.
as §2

[7] = as a substrate, read-out: KM for D-fructose 6-phosphate
[8] = bound stated for both fsaA and fsaB enzymes, read-out: KM (condensation of glycolaldehyde as donor with D-glyceraldehyde 3-phosphate as acceptor)
[9] = as a substrate, read-out: KM for dihydroxyacetone phosphate
[10] = other: 37° C., n=3, nonlinear regression
[11] = other: FIG. 8D and Table 5, 37° C., n=3

Q: Which Km ([1]; read-out: KM for D-arabinose 5-phosphate) does the source give for O=P(O)(O)OC[C@H]1OC(O)[C@@H](O)[C@@H]1O (stereo partly drawn) [D-arabinose 5-phosphate] here?
A: ~500 µM

Q: With O=P(O)(O)OC[C@H]1OC(O)(CO)[C@@H](O)[C@@H]1O (stereo partly drawn) [D-fructose 6-phosphate] as the molecule, how does the Km [1, 7] read?
A: > 6000 µM

Q: What about the Km [2, 7] of the same molecule?
A: > 6000 µM

Q: Which Km [1, 8] does the source give for O=C[C@H](O)COP(=O)(O)O [D-glyceraldehyde 3-phosphate] here?
A: < 1000 µM

Q: What about the Km [2, 8] of the same molecule?
A: < 1000 µM

Q: With O=C(CO)COP(=O)(O)O [dihydroxyacetone phosphate] as the molecule, how does the Km [1, 9] read?
A: > 25000 µM

Q: And the Km [2, 9]?
A: > 25000 µM

B1: malonyl-CoA reductase from Chloroflexus aurantiacus (MCRCa), SEQ ID NO: 8 (Chloroflexus aurantiacus) (protein)
chain: MSGTGRLAGKIALITGGAGNIGSELTRRFLAEGATVIISGRNRAKLTALAERMQAEAGVPAKRIDLEVMDGSDPVAVRAGIEAIVARHGQIDILVNNAGSAGAQRRLAEIPLTEAELGPGAEETLHASIANLLGMGWHLMRIAAPHMPVGSAVINVSTIFSRAEYYGRIPYVTPKAALNALSQLAARELGARGIRVNTIFPGPIESDRIRTVFQRMDQLKGRPEGDTAHHFLNTMRLCRANDQGALERRFPSVGDVADAAVFLASAESAALSGETIEVTHGMELPACSETSLLARTDLRTIDASGRTTLICAGDQIEEVMALTGMLRTCGSEVIIGFRSAAALAQFEQAVNESRRLAGADFTPPIALPLDPRDPATIDAVFDWGAGENTGGIHAAVILPATSHEPAPCVIEVDDERVLNFLADEITGTIVIASRLARYWQSQRLTPGARARGPRVIFLSNGADQNGNVYGRIQSAAIGQLIRVWRHEAELDYQRASAAGDHVLPPVWANQIVRFANRSLEGLEFACAWTAQLLHSQRHINEITLNIPANISATTGARSASVGWAESLIGLHLGKVALITGGSAGIGGQIGRLLALSGARVMLAARDRHKLEQMQAMIQSELAEVGYTDVEDRVHIAPGCDVSSEAQLADLVERTLSAFGTVDYLINNAGIAGVEEMVIDMPVEGWRHTLFANLISNYSLMRKLAPLMKKQGSGYILNVSSYFGGEKDAAIPYPNRADYAVSKAGQRAMAEVFARFLGPEIQINAIAPGPVEGDRLRGTGERPGLFARRARLILENKRLNELHAALIAAARTDERSMHELVELLLPNDVAALEQNPAAPTALRELARRFRSEGDPAASSSSALLNRSIAAKLLARLHNGGYVLPADIFANLPNPPDPFFTRAQIDREARKVRDGIMGMLYLQRMPTEFDVAMATVYYLADRNVSGETFHPSGGLRYERTPTGGELFGLPSPERLAELVGSTVYLIGEHLTEHLNLLARAYLERYGARQVVMIVETETGAETMRRLLHDHVEAGRLMTIVAGDQIEAAIDQAITRYGRPGPVVCTPFRPLPTVPLVGRKDSDWSTVLSEAEFAELCEHQLTHHFRVARKIALSDGASLALVTPETTATSTTEQFALANFIKTTLHAFTATIGVESERTAQRILINQVDLTRRARAEEPRDPHERQQELERFIEAVLLVTAPLPPEADTRYAGRIHRGRAITV
Q: What does the source list for B1?
A: Km [3, 10]: 25.7 ± 2.6 µM; Vmax [3, 10]: 635±14 mU/mg; Km [3, 11]: 0.03 ± 0.003 mM (tartronyl-CoA) mM; Vmax [3, 11]: 0.6 ± 0.01 U mg^−1

B2: propionyl-CoA carboxylase from Methylobacterium extorquens (PCCMe) variant PCCMe_D407I_Y143H (pccA SEQ ID NO: 2; pccB_D407I_Y143H SEQ ID NO: 6) (Methylorubrum … (protein)
chain 1: MKDILEKLEERRAQARLGGGEKRLEAQHKRGKLTARERIELLLDHGSFEEFDMFVQHRSTDFGMEKQKIPGDGVVTGWGTVNGRTVFLFSKDFTVFGGSLSEAHAAKIVKVQDMALKMRAPIIGIFDAGGARIQEGVAALGGHGEVFRRNVAASGVIPQISVIMGPCAGGDVYSPAMTDFIFMVRDTSYMFVTGPDVVKTVTNEVVTAEELGGAKVHTSKSSIADGSFENDVEAILQIRRLLDFLPANNIEGVPEIESFDDVNRLDKSLDTLIPDNPNKPYDMGELIRRVVDEGDFFEIQAAYARNIITGFGRVEGRTVGFVANQPLVLAGVLDSDASRKAARFVRFCNAFSIPIVTFVDVPGFLPGTAQEYGGLIKHGAKLLFAYSQATVPLVTIITRKAFGGAYIVMASKHVGADLNYAWPTAQIAVMGAKGAVEIIFRAEIGDADKIAERTKEYEDRFLSPFVAAERGYIDEVIMPHSTRKRIARALGMLRTKEMEQPWKKHDNIPL
chain 2: MFDKILIANRGEIACRIIKTAQKMGIKTVAVYSDADRDAVHVAMADEAVHIGPAPAAQSYLLIEKIIDACKQTGAQAVHPGYGFLSERESFPKALAEAGIVFIGPNPGAIAAMGDKIESKKAAAAAEVSTVPGFLGVIESPEHAVTIADEIGYPVMIKASAGGGGKGMRIAESADEVAEGFARAKSEASSSFGDDRVFVEKFITDPRHIEIQVIGDKHGNVIYLGERECSIQRRNQKVIEEAPSPLLDEETRRKMGEQAVALAKAVNYDSAGTVEFVAGQDKSFYFLEMNTRLQVEHPVTEMITGLDLVELMIRVAAGEKLPLSQDQVKLDGWAVESRVYAEDPTRNFLPSIGRLTTYQPPEEGPLGGAIVRNDTGVEEGGEIAIHYDPMIAKLVTWAPTRLEAIEAQATALDAFAIEGIRHNIPFLATLMAHPRWRDGRLSTGFIKEEFPEGFIAPEPEGPVAHRLAAVAAAIDHKLNIRKRGISGQMRDPSLLTFQRERVVVLSGQRFNVTVDPDGDDLLVTFDDGTTAPVRSAWRPGAPVWSGTVGDQSVAIQVRPLLNGVFLQHAGAAAEARVFTRREAELADLMPVKENAGSGKQLLCPMPGLVKQIMVSEGQEVKNGEPLAIVEAMKMENVLRAERDGTISKIAAKEGDSLAVDAVILEFA
Q: With B2 as the molecule, how does the Km [4] read?
A: 1.0 ± 0.15 mM (glycolyl-CoA) mM

Q: What about the Vmax [4] of the same molecule?
A: 1.5 ± 0.09 U mg^−1

B3: MCRE: malonyl-CoA reductase of Erythrobacter sp. NAP1, NCBI accession no. WP_007163680.1, SEQ ID NO: 10 (protein, listed as Erythrobacter sp.)
chain: MSKEGNAAKGRLEGKVALITGAAGNLGNEISRAFAREGAFVVMTGRTEERISAAREQLIADTGVAPERIDTAVLDGGNPDSIRAAMAKLRKEYGRIDILINNAGSAGPKQPLHNVPLSPQEMEACGDTETVRDAMLNILGVTWNMARIVAPMMPVGGAMVNISTIFSHTRYYGRTAYVVPKAALNALSNQLASELGPRGIRVNTVFPGPIESDRIRTVFAAMDEVQSQPKDTTANYFTGRMALTRSVNGKVDGKPLPNPKDIAGTCLFLASEEAAGIAGEEVDVTHGLSANRTSASTYMTRPSMRSLDGAGLNIFIVSGENWDDALVAAHTLIGSGAKVRLGLARNADVAQANARLKAQGIGEELTVTRFNRAEPDAMEDALAAFSGDVDGAITGAIILPVKPSGHFTGSLLAADDDTVTKFMDTELVGAIAVSRSLARYWHGREDLQSPPRCVFMTNPGDPLGNSFASVLSAGITQLIRIWRDEERVQAGNGSTEHAVWSNQIVRHTNTEDENTRFASGHATRVLFREQHIAEIDLKLPANISEETGSRKAMVGFAENITGLHLGKVAFITGGSAGIGGQVARLLALAGAKVMMVARRESELVAARDRIVGELQDIGFAGVERRVKYMADIDVSDFASLDKAVDATLEEFGRIDYLINNAGVAGAEDMVIDMEPEAWRFTLDANLISNYHLMQRVVPLMKEQGSGYVLNVSSYFGGEKFLAVAYPNRADYGLSKAGQRAMVEAFSPFLGPEVQCNAIAPGPVDGDRLSGTGGKPGLFQRRAKLILENKRLNAVYSAVIHAIREGGDAAKILTRLSRNSTSTLSHDAEAPEELRKLALDFASQGDGLCTWDQYLLTDAMAQRLLVRLQLGGFLLGSNEWASLSSSEQTWLKLSPPDDKPFLPAAQVDKVANGVGKGVISQLHLGAMPTEAEVAQATVFFLADRAVSGETFMPSGGLRVERSNTEREMFGSPKQERIDKMKGKTVWIIGEHLSDYVAATIEELVSGCGVAKVVLIAKDKSGEKAVRDQLPNDLSKDALEVLIAGDGLEEAMDEALGHWGKPTTVLSMPGEPLPDHLFEGGNPLSTKDFAHMVEANITRHYRVTRKASLYDGCQVVLVSPDVPYGSDGPGVALANFVKTSLHAFTATVAVENERLVHDVPVNQINLTRRVSSEEPRDADEHAEELRRFTRAVLLVGAPLPDAQDSRYRSKIYRGTSMTV
modifications: [CDS]1..3654 from SEQ ID NO 9
Q: What does the source list for B3?
A: specific activity for tartronyl-CoA, times lower than that of MCRCa [5]: 6 times; specific activity with tartronyl-CoA ([5]; 37° C.): 0.1 U mg^−1; specific activity for malonyl-CoA, times lower than MCRCa [6]: 100 times; specific activity with malonyl-CoA ([6]; 0.25 mM malonyl-CoA): 0.1 U mg^−1
